Entries after “also recorded” stand apart in the source; their conditions may differ.
Experiments:
[1] = test system: normal CD1 mice; assay: Wound closure after full-thickness excised wound in normal CD1 mice; type: in vivo; details: for wound area reduced by % of the initial size / wound closure / healing rate vs vehicle: normal mice; for wound area reduced by % of the initial size: GL 250 μg/mouse topically every two days; for wound closure / healing rate vs vehicle: GL 250 μg/mouse topically in wound area
[2] = test system: diabetic CD1 mice; assay: Wound closure after full-thickness excised wound in streptozotocin-diabetic CD1 mice; type: in vivo
Protocol: CD1 male mice were obtained from Charles River (Calco, LC, Italy). Mice were rendered diabetic by intraperitoneal injection of streptozotocin (Sigma-Aldrich, St Louis, Mo., USA) at 1.2 mg/30 g weight/day for 5 consecutive days. After 7 days, glycemia was measured and animals with glycemia of 200 to 400 mg/dl were selected for further studies. Mice were anesthetized with intraperitoneal injection of 2.5% Avertin (100% Avertin: 10 g of 2,2,2-tribromoethyl alcohol and 10 ml of tert-amyl alcohol, Sigma). Their dorsum was clipped free of hair and a full thickness wound of 3.5 mm diameter was created using a biopsy punch.
HMGB1 treatment was performed directly in the wound area by injecting 200 ng, 400 ng or 800 ng of purified protein (13) in 20 μl of saline solution at time immediately after wound. Control groups received 20 μl of saline solution in the wound. Glycyrrhyzin, GL (12) was administered topically in the wound area every two days from day 0 to day 14 after wound creation. The concentration used for each administration was 250 μg/mouse in 30 μl of PBS. Control mice received vehicle (PBS).
Animals were photographed at day 0, 3, 5, 6, 7, 10, and 14 after wound. Pictures were digitally processed and areas of wounds were calculated using the KS300 system (Zeiss, Jena GmbH, Germany). For each sample the percentage of wound closure was calculated as the ratio: […]
Where time 0 is the time immediately after the wound. The groups included 6 to 10 animals. Results are presented as mean±standard error. Statistical significance between two measurements was evaluated by unpaired Student's t test.

[3] = test system: keratinocytes (HaCat cell line); assay: Chemotaxis assay (modified Boyden chamber), keratinocytes; type: cell-based, human; details: HMGB1 200 ng/ml
Protocol: (§1) FIG. 9: Effect of HMGB1 on human fibroblasts and keratinocytes migration. Normal (A) and diabetic (B) fibroblasts were obtained from human biopsies. 0.4×10^6 cells/ml were placed in upper compartment of the modified Boyden chambers. HMGB1 (200 ng/ml) or PDGF (15 ng/ml) was added to the lower compartment and incubated for 6 hrs at 37° C. (C) Hacat cells were obtained from ATCC and migration experiments performed as described in (A-B). After staining with Giemsa solution, migrated cells were quantified by counting nuclei in five random microscope fields (40×). The data are expressed as migration index (fold increase in number of migrated cells relative to number of migrated cells in the absence of HMGB1 or PDGF) and are mean±SD of at least 4 independent experiments performed in triplicate. Statistical significance was evaluated by unpaired Student's t test.
Hacat human cells were obtained according to (14). […]
(§2) The lower compartment of each chamber was filled with 28 μl DMEM with 0.1% BSA. […] Cells on five random fields on the lower face of the filter were counted at 40× magnification and migration index was calculated by dividing the number of migrated cells in the presence of chemoattractants by the cells migrated in response to DMEM with 0.1% BSA.

[4] = test system: normal human fibroblasts; assay: Chemotaxis assay (modified Boyden chamber), normal human fibroblasts; type: cell-based; details: HMGB1 200 ng/ml
Protocol: as §1, with “test. […]” for “test.”
as §2

[5] = test system: diabetic human fibroblasts; assay: Chemotaxis assay (modified Boyden chamber), diabetic human fibroblasts; type: cell-based; details: HMGB1 200 ng/ml
Protocol: as §1, with “test. […]” for “test.”
as §2

Row | Molecule | wound area reduced by % of the initial size ([1]; day 3) [%] | wound area reduced by % of the initial size ([1]; day 5) [%] | wound area reduced by % of the initial size ([1]; day 6) [%] | wound area reduced by % of the initial size ([1]; day 7) [%] | wound closure / healing rate vs vehicle [1] | wound closure / healing rate vs vehicle ([1]; listed as glycyrrhizin) | wound closure vs saline ([2]; glycyrrhizin 250 μg in the wound area) | chemotactic effect (migration) [3] | chemotactic effect (migration) [4] | chemotactic effect (migration) [5] | wound closure ([1]; normal CD1 mice, HMGB1 200 ng in 20 μl injected in wound area immediately after wounding, vs saline) | percentage of wound closure ([1]; normal CD1 mice, HMGB1 200 ng, day 3 after wounding) [%] | percent of wound closure vs saline ([1]; normal CD1 mice, HMGB1 200 ng, day 5, p<0.03) | percentage of wound closure ([2]; HMGB1 200 ng, day 3 after wounding) [%] | percentage of wound closure ([2]; HMGB1 200 ng, day 5) [%] | percentage of wound closure ([2]; HMGB1 200 ng, day 6) [%] | healing rate vs saline ([2]; HMGB1 200 ng, p<0.03) | complete wound closure evident by ([2]; HMGB1 200 ng, same in saline group) [days] | wound closure compared to lower dose (200 ng) ([2]; HMGB1 400 ng in 20 ul, 3 days after wounding) | wound closure compared to dose of 200 ng ([2]; HMGB1 800 ng)
1 | CC1(C)[C@@H](O[C@H]2O[C@H](C(=O)O)[C@@H](O)[C@H](O)[C@H]2O[C@@H]2O[C@H](C(=O)O)[C@@H](O)[C@H](O)[C@H]2O)CC[C@]2(C)[C@H]3C(=O)C=C4[C@@H]5C[C@@](C)(C(=O)O)CC[C@]5(C)CC[C@@]4(C)[C@]3(C)CC[C@@H]12 [GL, Glycyrrhizin] | 15±3.5 | 38.7±6 | 61.2±5.9 | 73.3±4.5 | slowed down wound closure | significantly lower | No significant differences; also recorded: did not significantly modify wound closure | – | – | – | – | – | – | – | – | – | – | – | – | –
2 | HMGB1 (protein, UniProt P09429 1-215, looked up, purified protein; cytokine released from monocyte-macrophage and necrotic cells, ligand of RAGE) High mobility group protein B1: MGKGDPKKPRGKMSSYAFFVQTCREEHKKKHPDASVNFSEFSKKCSERWKTMSAKEKGKFEDMAKADKARYEREMKTYIPPKGETKKKFKDPNAPKRPPSAFFLFCSEYRPKIKGEHPGLSIGDVAKKLGEMWNNTAADDKQPYEKKAAKLKEKYEKDIAAYRAKGKPDAAKKGVVKAEKSKKKKEEEEDEEDEEDEEEEEDEEDEDEEEDDDDE | – | – | – | – | – | – | – | exhibited a chemotactic effect | exhibited a chemotactic effect | exhibited a chemotactic effect | increased wound closure | 30.5±8.5 | significantly higher | 47.5±15.8 | 66.5±13 | 72.2±9 | significantly higher | ≤ 14 | larger wound closure | same effect

From patent US20090062187A1, “Use of Hmgb1 for Wound Healing” (priority 2004, published 2009)
